Reference: patent US20230348616A1

Tests used:
Assay in all cases: flow cytometry on peptide-pulsed T2 cells, scFv 100 nM
5A = target: 5A
7F = target: 7F
4A = target: 4A
1F = target: 1F
2M = target: 2M
6L = target: 6L
3A = target: 3A

B1: NYA-2047 (scFv)
scFv: GQVQLVESGGGVVQPGRSLRLSCAASGFSIRSYDMHWVRQAPGKGLEWVATISYDGSQKYYADSVKGRFTISRDNSKNTLYLQMSSLRAEDTAVYHCARGSSGHYEAFDIWGQGTLVTVSSGGGGSGGGGSGGGGSQSVLTQPPSVSAAPGQKVTISCSGSSSNIGNWYVSWYQQLPGTAPKLLIYDNNKRPSGIPDRFSGSKSGTSATLGITGLQTGDEADYYCGTWDSSLSAPWVFGGGTKVTVLGAAAGAGGDYKDDDDKGAAAHHHHHH
B1 showed a standardized gMFI (5A) of 1.03 and a standardized gMFI (7F) of 3.11.

B2: NYA-2044 (scFv)
scFv: GEVQLVESGGGLVQPGGSLRLSCAASGFSIRSYDIHWVRLAPGKGLEWVATISYDGSQKYYADSVKGRFTISRDESKNTLYLQMNSLRAEDTAVYHCARGSSGHYEAFDIWGQGTLVTVSSGGGGSGGGGSGGGGSQSVLTQPPSVSAAPGQKVTISCSGSSSNIGNWYVSWYQQLPGTAPKLLIYDNNKRPSGIPDRFSGSKSGTSATLGITGLQTGDEADYYCGTWDSSLSAPWVFGGGTKVTVLGAAAGAGGDYKDDDDKGAAAHHHHHH
Work on B2 yielded a standardized gMFI (5A) of 2.2.

B3: NYA-2048 (scFv)
scFv: GQVQLVESGGGVVQPGRSLRLSCAASGFSIRSYDMHWVRQAPGKGLEWVATISYDGSQKYYADSVKGRFTISRDNSKNTLYLQMSSLRAEDTAVYHCARGSSGHYEAFDIWGQGTLVTVSSGGGGSGGGGSGGGGSQSVLTQPPSASGTPGQRVTISCSGSSSNIGNWYVSWYQQLPGTAPKLLIYDNNKRPSGVPDRFSGSKSGTSASLAISGLQSEDEADYYCGTWDSSLSAPWVFGGGTKLTVLGAAAGAGGDYKDDDDKGAAAHHHHHH
Binder B3 has a standardized gMFI (7F) of 1.46.

B4: NYA-2045 (scFv)
scFv: GEVQLVESGGGLVQPGGSLRLSCAASGFSIRSYDIHWVRLAPGKGLEWVATISYDGSQKYYADSVKGRFTISRDESKNTLYLQMNSLRAEDTAVYHCARGSSGHYEAFDIWGQGTLVTVSSGGGGSGGGGSGGGGSQSVLTQPPSASGTPGQRVTISCSGSSSNIGNWYVSWYQQLPGTAPKLLIYDNNKRPSGVPDRFSGSKSGTSASLAISGLQSEDEADYYCGTWDSSLSAPWVFGGGTKLTVLGAAAGAGGDYKDDDDKGAAAHHHHHH
B4 was tested, and the standardized gMFI (4A) was 1.17 and the standardized gMFI (5A) was 0.94.

B5: NYA-1143 (scFv)
scFv: GEVQLVESGGGVVQPGRSLTPSCSASGFSIRSYDIHWVRLAPGKGLEWVATISYDGSQKYFADSVKGRFTIFRDESENMVYLQMSGLRVEDTAVYHCARGSSGHYEAFDIWGQGTMVTVSSGGGGSGGGGSGGGGSQSVLTQPPSVSAAPGQKVTISCSGSSSNIGNWYVSWYQQLPGTAPKLLIYDNNKRPSGIPDRFSGSKSGTSATLGITGLQTGDEADYYCGTWDSSLSAPWVFGGGTKVTVLGAAAGAGGDYKDDDDKGAAAHHHHHH
Work on B5 yielded a standardized gMFI (4A) of 5.91, a standardized gMFI (7F) of 4.26 and a standardized gMFI (1F) of 1.77.

B6: NYA-2143 (scFv)
scFv: GEVQLVESGGGVVQPGRSLTPSCSASGFSIRSYDIHWVRLAPGKGLEWVATISYDGSQKYFADSVKGRFTIFRDESENMVYLQMSGLRVEDTAVYHCARGSSGHYEAFDIWGQGTMVTVSSGGGGSGGGGSGGGGSQSVLTQPPSVSAAPGQKVTISCSGSSSNIGNWYVSWYQRLPGTAPKLLIYDNNKRPSGIPDRFSGSKSGTSATLGITGLQTGDEADYYCGTWDSSLSAPWVFGGGTKVTVLGAAAGAGGDYKDDDDKGAAAHHHHHH
Binder B6 has a standardized gMFI (5A) of 4.3 and a standardized gMFI (7F) of 5.26.

B7: NYA-1163 (scFv)
scFv: GEVQLVESGGGVVQPGRSLTPSCSASGFSIRSYDIHWVRLAPGKGLEWVATISYDGSQKYFADSVKGRFTIFRDESENMVYLQMSGLRVEDTAVYHCARGSSGHYEAFDIWGQGTMVTVSSGGGGSGGGGSGGGGSQSVLTQPPSVSAAPGQKVTISCSGSSSNIGNNYVSWYQQLPGTAPKLLIYDNNKRPSGIPDRFSGSKSGTSATLGITGLQTGDEADYYCGTWDSSLSAPWVFGGGTKVTVLGAAAGAGGDYKDDDDKGAAAHHHHHH
B7 was tested, and the standardized gMFI (2M) was 1.85, the standardized gMFI (6L) was 1.74 and the standardized gMFI (3A) was 1.7. The standardized gMFI (7F) was 1.11.

B8: NYA-2023 (scFv)
scFv: GEVQLVESGGGVVQPGRSLTPSCSASGFSIRSYDIHWVRQAPGKGLEWVATISYDGSQKYFADSVKGRFTIFRDESENMVYLQMSGLRVEDTAVYHCARGSSGHYEAFDIWGQGTMVTVSSGGGGSGGGGSGGGGSQSVLTQPPSVSAAPGQKVTISCSGSSSNIGNWYVSWYQQLPGTAPKLLIYDNNKRPSGIPDRFSGSKSGTSATLGITGLQTGDEADYYCGTWDSSLSAPWVFGGGTKVTVLGAAAGAGGDYKDDDDKGAAAHHHHHH
In the case of B8, the standardized gMFI (5A) is reported as 1.21.

B9: NYA-1154 (scFv)
scFv: GEVQLVESGGGVVQPGRSLTPSCSASGFSIRSYDMHWVRQAPGKGLEWVATISYDGSQKYFADSVKGRFTIFRDESENMVYLQMSGLRVEDTAVYHCARGSSNHYEAFDIWGQGTMVTVSSGGGGSGGGGSGGGGSQSVLTQPPSVSAAPGQKVTISCSGSSSNIGNNYVSWYQRLPGTAPKLLIYDNNKRPSGIPDRFSGSKSGTSATLGITGLQTGDEADYYCGAWDSSLSAPWVFGGGTKVTVLGAAAGAGGDYKDDDDKGAAAHHHHHH
In the case of B9, the standardized gMFI (5A) is reported as 1.12 and the standardized gMFI (1F) is reported as 3.98.

B10: NYA-2035 (scFv)
scFv: GEVQLVESGGGVVQPGRSLTPSCSASGFSIRSYDIHWVRLAPGKGLEWVATISYDGSQKYFADSVKGRFTIFRDESENMVYLQMSGLRVEDTAVYHCARGSSGHYEAFDIWGQGTMVTVSSGGGGSGGGGSGGGGSQSVLTQPPSVSAAPGQKVTISCSGSSSNIGNWKVSWYQQLPGTAPKLLIYDNNKRPSGIPDRFSGSKSGTSATLGITGLQTGDEADYYCGTWDSSLSAPWVFGGGTKVTVLGAAAGAGGDYKDDDDKGAAAHHHHHH
Work on B10 yielded a standardized gMFI (4A) of 2.16 and a standardized gMFI (5A) of 2.27.
